Experimental data taken from publication PMC12579237, “Development of antibody drug conjugates targeting epithelial membrane protein 2-highly expressed lung cancer” (Cell Death & Disease, 2025).

B1: FK002-exatecan (antibody, V domains shown)
VH: DVQLQESGPGLVKPSQSLSLTCSVTGYSITSGYYWNWIRQFPGNKLEWMGYIRYDGRNNYNPSLKNRISITRDTSKNQFFLKLNSVTTEDTATYYCARDFDYWGQGTTLTVSS
VL: DIVLTQSPASLAVSLGQRATISCRASESVDTYGNSFMHWYQQKPGQPPKLLIYRASNLESGIPARFSGSGSRTDFTLTINPVEADDVATYYCHQSNEDPDTFGGGTKLEIKR
modifications: exatecan conjugated by the T1000 (Mc-VA-PABC(PSAR1o)) linker to the fully reduced antibody; DAR approximately 8 per antibody; residues not stated | exatecan conjugated by the T1000 (Mc-VA-PABC(PSAR1o)) linker to the fully reduced antibody; DAR approximately 8 per antibody; residues not stated
B2: FK002 antibody (mouse mAb) (antibody, V domains shown)
VH: B1 VH
VL: DIVLTQSPASLAVSLGQRATISCRASESVDTYGNSFMHWYQQKPGQPPKLLIYRASNLESGIPARFSGSGSRTDFTLTINPVEADDVATYYCHQSNEDPDTFGGGTKLEIK
notes: V region of the printed chimeric heavy chain; mouse IgG heavy constant region; V region of the printed chimeric light chain; mouse light constant region; Flow cytometry, immunofluorescence, immunoblot and dot blot used the mouse mAb (anti-mouse secondary antibodies); also called FK002Ab; FK002 mAb; source: hybridoma, mouse ascites (from Abmart)

Key:
hEMP2-GFP [1] = molecular target: T1, hEMP2-GFP (Homo sapiens, UniProt P54851)
T1 construct: epithelial membrane protein 2 (EMP2), human, fused to GFP; also called human EMP2-GFP; pCDH-EMP2-GFP; source: HEK293T, transfected, in lysate; A549, transfected, in cells; stably overexpressed (lentivirus) in A549, NCI-H520 and LLC cells

Purified EMP2 protein [2] = molecular target: T2, Purified EMP2 protein (human, UniProt P54851 1-167); assay: SPR
T2 chain: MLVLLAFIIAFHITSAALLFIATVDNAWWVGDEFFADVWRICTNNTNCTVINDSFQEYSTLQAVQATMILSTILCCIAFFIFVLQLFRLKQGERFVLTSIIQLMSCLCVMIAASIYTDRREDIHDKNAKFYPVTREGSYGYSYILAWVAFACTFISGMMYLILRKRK

hEMP2-GFP [3] = molecular target: T1, hEMP2-GFP; assay: immunostaining of cells or tissue; immunofluorescence of A549 cells transfected with hEMP2-GFP, stained with FK002; colocalization quantified; details: one partner purified
[4] = molecular target: T3, epithelial membrane protein 2 (EMP2), endogenous in NCI-H226 cells (Homo sapiens, UniProt P54851); assay: affinity purification with mass spectrometry; FK002 antibody incubated with NCI-H226 whole-cell lysate; immunoprecipitate silver stained, qualitative mass spectrometry; details: one partner purified
T3 construct: epithelial membrane protein 2 (EMP2), human, endogenous in NCI-H226 lung squamous carcinoma cells; On live cells in the flow cytometry; in whole-cell lysate in the immunoprecipitation; also called human EMP2; source: endogenous, NCI-H226 whole-cell lysate; endogenous, on NCI-H226 cells

[5] = molecular target: T4, Peptide 4. KFYPVTREGS (129-138aa) (Homo sapiens); assay: far-Western, overlay or dot blot; dot blot: 2.5 µL of each sample spotted on nitrocellulose (legend: 1 μg/spot), probed with FK002 antibody and HRP-conjugated mouse secondary antibody; details: both partners purified
T4 construct: human EMP2 residues 129-138; source: synthetic peptide (GenScript)
T4 chain: KFYPVTREGS

Purified EMP2 protein [6] = molecular target: T2, Purified EMP2 protein; assay: SPR; Biacore 8K; EMP2 protein (approximately 12,000 RU) amine coupled; FK002Ab injected at 8 concentrations (0.02-1 μM), 20 μL/min, 100 s association, 180 s dissociation; PBS pH 7.2-7.4 with 1% dimethyl sulfoxide

| Binder | EMP2 left on the cell surface, flow cytometry of EMP2-overexpressing NCI-H520 and NCI-A549 cells with or without FK002-exatecan (100 nM) for 48 h (hEMP2-GFP [1]) [%] | koff (Purified EMP2 protein [2]) [s⁻¹] | binding result (hEMP2-GFP [3]) | binding result [4] | binding result [5] | Kd (Purified EMP2 protein [6]) [nM] |
| --- | --- | --- | --- | --- | --- | --- |
| B1 | < 35 | – | – | – | – | – |
| B2 | – | 0.00328 | binds | binds | binds | 40.3 |
